According to US20260015426A1 (23ANDME, published 2026):
Read-outs that look alike come from different tables or passages of the source.

Legend:
[1] = target: T1, hu-M-IL1RAP construct, positions S21-T367 (extracellular domain of the membrane form of human IL1RAP) (human, UniProt Q9NPH3 21-367); experiment: ELISA, purified mAb
T1 construct: Biotinylated when captured on the Biacore chip
T1 sequence: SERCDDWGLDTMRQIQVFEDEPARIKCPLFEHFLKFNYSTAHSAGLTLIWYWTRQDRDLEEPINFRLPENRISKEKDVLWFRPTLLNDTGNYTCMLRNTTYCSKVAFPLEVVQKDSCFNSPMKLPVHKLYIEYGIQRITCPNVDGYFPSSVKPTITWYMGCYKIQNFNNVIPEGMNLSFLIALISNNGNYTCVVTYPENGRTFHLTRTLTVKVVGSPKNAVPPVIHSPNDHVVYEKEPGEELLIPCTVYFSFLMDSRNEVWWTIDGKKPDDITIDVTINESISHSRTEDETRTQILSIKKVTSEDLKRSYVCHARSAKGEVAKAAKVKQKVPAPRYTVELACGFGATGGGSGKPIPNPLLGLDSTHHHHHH

[2] = target: T2, hu-S-IL1RAP construct, positions S21-Q356 (soluble human IL1RAP) (human, UniProt Q9NPH3 21-350); experiment: ELISA, purified mAb
T2 sequence: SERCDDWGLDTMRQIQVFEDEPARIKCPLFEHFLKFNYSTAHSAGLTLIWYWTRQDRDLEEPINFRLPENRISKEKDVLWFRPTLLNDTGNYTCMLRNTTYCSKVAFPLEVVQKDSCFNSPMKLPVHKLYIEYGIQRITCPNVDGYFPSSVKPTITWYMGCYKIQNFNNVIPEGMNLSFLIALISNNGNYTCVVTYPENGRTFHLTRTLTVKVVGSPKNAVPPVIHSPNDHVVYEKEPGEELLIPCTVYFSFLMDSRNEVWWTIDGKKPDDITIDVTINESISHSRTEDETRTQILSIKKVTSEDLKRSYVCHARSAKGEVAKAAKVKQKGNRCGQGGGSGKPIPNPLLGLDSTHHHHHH

[3] = target: T3, cyno-M-IL1RAP construct, positions S21-T367 (cynomolgus monkey, UniProt P59822 21-367 (rhesus entry)); experiment: ELISA, purified mAb
T3 construct: Biotinylated when captured on the Biacore chip; also called cy-M-IL1RAP
T3 sequence: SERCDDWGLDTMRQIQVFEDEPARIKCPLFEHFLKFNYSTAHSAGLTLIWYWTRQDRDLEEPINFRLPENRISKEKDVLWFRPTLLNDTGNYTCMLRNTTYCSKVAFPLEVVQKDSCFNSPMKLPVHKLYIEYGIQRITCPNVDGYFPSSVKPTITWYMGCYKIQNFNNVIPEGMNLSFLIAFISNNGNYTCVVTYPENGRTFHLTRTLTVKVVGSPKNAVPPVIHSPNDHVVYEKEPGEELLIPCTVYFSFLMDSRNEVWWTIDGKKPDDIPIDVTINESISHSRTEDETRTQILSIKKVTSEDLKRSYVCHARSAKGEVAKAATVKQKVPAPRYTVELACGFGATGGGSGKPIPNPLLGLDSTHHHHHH

[4] = target: T4, mu-M-IL1RAP construct, positions S21-T367 (mouse, UniProt Q61730 21-367); experiment: ELISA, purified mAb
T4 construct: also called mo-M-IL1RAP; mouse-M-IL1RAP
T4 sequence: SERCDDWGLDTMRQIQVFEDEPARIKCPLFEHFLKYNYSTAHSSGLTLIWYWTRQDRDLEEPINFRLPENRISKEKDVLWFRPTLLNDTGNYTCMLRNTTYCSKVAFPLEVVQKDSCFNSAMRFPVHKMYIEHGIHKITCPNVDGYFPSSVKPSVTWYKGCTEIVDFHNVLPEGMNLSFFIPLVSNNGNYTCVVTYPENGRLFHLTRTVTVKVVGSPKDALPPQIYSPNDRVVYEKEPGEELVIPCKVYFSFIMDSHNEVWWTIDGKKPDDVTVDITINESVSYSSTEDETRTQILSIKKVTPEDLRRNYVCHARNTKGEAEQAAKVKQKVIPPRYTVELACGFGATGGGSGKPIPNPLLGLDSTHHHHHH

[5] = target: T1, hu-M-IL1RAP construct, positions …; experiment: ELISA, mAb at 10 nM
[6] = target: T5, hu-M-IL1RAP-D1D2 construct, positions S21-P237 (human); experiment: ELISA, mAb at 10 nM
T5 chain: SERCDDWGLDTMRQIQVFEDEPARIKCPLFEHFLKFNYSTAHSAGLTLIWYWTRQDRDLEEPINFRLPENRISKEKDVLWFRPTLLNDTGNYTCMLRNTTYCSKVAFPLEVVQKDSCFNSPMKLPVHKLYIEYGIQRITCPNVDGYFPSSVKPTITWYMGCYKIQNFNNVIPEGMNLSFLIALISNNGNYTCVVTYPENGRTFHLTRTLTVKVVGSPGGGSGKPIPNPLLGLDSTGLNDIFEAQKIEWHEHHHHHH

[7] = target: T6, human IL1RAP (hu-IL1RAP) on human cells (human, UniProt Q9NPH3 21-570); experiment: cell-based or functional assay
T6 sequence: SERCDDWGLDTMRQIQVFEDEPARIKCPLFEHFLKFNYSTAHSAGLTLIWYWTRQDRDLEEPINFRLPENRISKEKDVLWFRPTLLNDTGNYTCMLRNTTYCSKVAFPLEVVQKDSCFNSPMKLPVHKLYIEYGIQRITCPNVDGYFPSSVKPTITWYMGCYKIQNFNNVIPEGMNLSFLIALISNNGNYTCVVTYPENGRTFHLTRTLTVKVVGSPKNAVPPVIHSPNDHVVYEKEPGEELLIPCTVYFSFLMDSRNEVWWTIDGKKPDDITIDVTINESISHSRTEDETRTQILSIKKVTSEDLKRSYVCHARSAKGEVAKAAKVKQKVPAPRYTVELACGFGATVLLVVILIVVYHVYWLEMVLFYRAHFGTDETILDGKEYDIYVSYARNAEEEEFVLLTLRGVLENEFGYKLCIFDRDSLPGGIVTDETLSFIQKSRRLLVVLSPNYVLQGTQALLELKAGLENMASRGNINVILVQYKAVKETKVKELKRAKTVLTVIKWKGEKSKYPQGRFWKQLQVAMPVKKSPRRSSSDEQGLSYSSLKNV

[8] = target: T6, human IL1RAP (hu-IL1RAP) on human cells; experiment: cell-based or functional assay; remark: listed apart in the source
[9] = target: T1, hu-M-IL1RAP construct, positions …; experiment: ELISA, hybridoma supernatant
[10] = target: T1, hu-M-IL1RAP construct, positions …; experiment: SPR, 37 C
[11] = target: T3, cyno-M-IL1RAP construct, positions …; experiment: SPR, 37 C
[12] = target: T6, human IL1RAP (hu-IL1RAP) on human cells; experiment: cell-based or functional assay; remark: listed apart in the source
[13] = target: T6, human IL1RAP (hu-IL1RAP) on human cells; experiment: cell-based or functional assay; remark: listed apart in the source
[14] = target: T1, hu-M-IL1RAP construct, positions …; experiment: SPR, IgG analyte (apparent), 37 C, pH 6
[15] = target: T3, cyno-M-IL1RAP construct, positions …; experiment: SPR, IgG analyte (apparent), 37 C, pH 6
[16] = target: T1, hu-M-IL1RAP construct, positions …; experiment: SPR, IgG analyte (apparent), 37 C, pH 7.4
[17] = target: T3, cyno-M-IL1RAP construct, positions …; experiment: SPR, IgG analyte (apparent), 37 C, pH 7.4
[18] = target: T1, hu-M-IL1RAP construct, positions …; experiment: SPR, IgG analyte (apparent), pH 7.4, 37 C
[19] = target: T3, cyno-M-IL1RAP construct, positions …; experiment: SPR, IgG analyte (apparent), pH 7.4, 37 C
[20] = target: T7, biotinylated human FcRn (Acro biosystems, catalogue number FCN-H52W7) (human, UniProt P55899 24-297; P61769 21-119, biotinylated); experiment: SPR steady state, FcRn captured, 25 C, pH 6.0; pH 6.0
T7 construct: Bought reagent; also called hu-FcRn
T7 sequence (P55899 24-297 limits assumed, chain 1 of 2): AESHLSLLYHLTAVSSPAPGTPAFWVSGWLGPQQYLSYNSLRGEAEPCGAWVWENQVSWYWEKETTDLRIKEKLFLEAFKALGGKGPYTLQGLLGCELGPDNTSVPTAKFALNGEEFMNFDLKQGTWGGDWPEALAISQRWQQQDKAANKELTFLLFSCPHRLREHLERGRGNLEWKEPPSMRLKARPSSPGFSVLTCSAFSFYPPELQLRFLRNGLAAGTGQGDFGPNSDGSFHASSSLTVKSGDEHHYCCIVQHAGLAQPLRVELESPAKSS
T7 sequence (P61769 21-119 limits assumed, chain 2 of 2): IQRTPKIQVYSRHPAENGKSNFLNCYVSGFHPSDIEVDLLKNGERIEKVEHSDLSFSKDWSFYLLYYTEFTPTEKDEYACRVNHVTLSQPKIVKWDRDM

[21] = target: T8, biotinylated cyno FcRn (Acro biosystems, catalogue number FCM-C5284) (cynomolgus monkey, UniProt Q8SPV9 24-297; Q8SPW0 21-119, limits assumed, biotinylated); experiment: as above
T8 construct: Bought reagent

B1: 9D5 (purified mAb from hybridoma 9D5) (antibody, V domains shown)
VH: QVQLQQSGAELARPGASVKFSCKASGYTFTSYWMQWVKQRPGQGLEWIGTIYPGDGNTRYTQKFKGKATLTADKSSSTAYMQLSGLASEDSAVYYCARGYFGNLVFDVWGAGTTVTVSS
VL: DIKMTQSPSSMYASLGERVTITCKASQDINTYLSWFLQKPGKSPKTLIYRADRLVDGVPSRFSGGGSGQDYSLTISSLEYEDLGIYYCLQYDEFPYTFGSGTKLEIK
notes: Mouse hybridoma mAb
Question: B1 was tested. Which EC50 [1] did it give?
Answer: 0.039 nM

Question: And the EC50 [2]?
Answer: 0.036 nM

Question: What about the EC50 [3] of the same binder?
Answer: 0.043 nM

Question: Does B1 bind [4]?
Answer: no binding (tested: 20 nM (highest tested))

Question: What about the A450 [5] of the same binder?
Answer: 1.14 A450

Question: And the A450 [6]?
Answer: 0.957 A450

Question: What about the “HEK-Blue SEAP, IL-1β, % inhibition (supernatant)” value [7] of the same binder?
Answer: 40%

Question: And the “HEK-Blue SEAP, IL-33, % inhibition (supernatant)” value [7]?
Answer: 18%

Question: And the “HEK-Blue, IL-1β, % inhibition at 100 nM” value [8]?
Answer: 86%

Question: And the “HEK-Blue, IL-33, % inhibition at 100 nM” value [8]?
Answer: 46%

Question: What about the A450 [9] of the same binder?
Answer: 1.05 A450

B2: h11C5 variant K17/H2 IgG (YKD) (antibody)
heavy: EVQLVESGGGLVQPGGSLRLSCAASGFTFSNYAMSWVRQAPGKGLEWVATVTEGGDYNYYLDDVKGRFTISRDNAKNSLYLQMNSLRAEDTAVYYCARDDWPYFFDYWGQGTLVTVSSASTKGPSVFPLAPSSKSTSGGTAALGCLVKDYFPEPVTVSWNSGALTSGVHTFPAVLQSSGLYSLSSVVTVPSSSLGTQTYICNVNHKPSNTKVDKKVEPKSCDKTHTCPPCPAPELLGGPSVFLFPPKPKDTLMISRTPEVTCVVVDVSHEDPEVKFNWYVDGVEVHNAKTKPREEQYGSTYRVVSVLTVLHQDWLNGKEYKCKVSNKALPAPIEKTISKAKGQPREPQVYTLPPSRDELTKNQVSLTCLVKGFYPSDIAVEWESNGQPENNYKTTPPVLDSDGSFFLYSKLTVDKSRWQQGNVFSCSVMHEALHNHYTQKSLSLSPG
light: DIQMTQSPSSLSASVGDRVTITCRASENIYSNLAWYQQKPGKSPKLLVYGYKNLADGVPSRFSGSGSGTDYTLTISSLQPEDFATYYCQHFKTTPRTFGGGTKVEIKRTVAAPSVFIFPPSDEQLKSGTASVVCLLNNFYPREAKVQWKVDNALQSGNSQESVTEQDSKDSTYSLSSTLTLSKADYEKHKVYACEVTHQGLSSPVTKSFNRGEC
notes: Human IgG1 N297G; also called 11C5-YKD
Question: With B2 as the binder, how does the “KD (6)/KD (7.4)” value [10] read?
Answer: 10 ratio

Question: What about the “KD (7.4) ratio to YIS” value [10] of the same binder?
Answer: 0.86 ratio

Question: What about the “koff (6) ratio to YIS” value [10] of the same binder?
Answer: 3.8 ratio

Question: And the “KD (6)/KD (7.4)” value [11]?
Answer: 4.8 ratio

Question: And the “KD (7.4) ratio to YIS” value [11]?
Answer: 2.4 ratio

Question: What about the “koff (6) ratio to YIS” value [11] of the same binder?
Answer: 4.7 ratio

Question: What about the “HEK-Blue, IL-1β, IC50” value [12] of the same binder?
Answer: 0.51 nM

Question: And the “HEK-Blue, IL-33, % inhibition at 100 nM” value [12]?
Answer: 95%

Question: What about the “HEK-Blue, IL-33, IC50” value [12] of the same binder?
Answer: 3.15 nM

Question: And the “HEK-Blue, IL-36β, IC50” value [12]?
Answer: 0.9 nM

Question: What about the “HEKn, IL-36β stimulated IL-8, IC50” value [12] of the same binder?
Answer: 1.39 nM

Question: And the “NK cells, IL-33+IL-12 stimulated IFN-γ, IC50” value [12]?
Answer: 2.93 nM

Question: And the “PHLF, IL-1α stimulated IL-8, IC50” value [12]?
Answer: 9.1 nM

Question: And the “PHLF, IL-36β stimulated IL-8, IC50” value [12]?
Answer: 0.39 nM

Question: And the “monocytes, IL-1β stimulated IL-6, IC50” value [12]?
Answer: 0.063 nM

Question: What about the “HEK-Blue, IL-1β, % inhibition at 100 nM (IgG)” value [13] of the same binder?
Answer: 100%

Question: What about the “HEK-Blue, IL-1β, IC50 (IgG)” value [13] of the same binder?
Answer: 0.513 nM

Question: And the “HEK-Blue, IL-33, % inhibition at 100 nM (IgG)” value [13]?
Answer: 100%

Question: What about the “HEK-Blue, IL-33, IC50 (IgG)” value [13] of the same binder?
Answer: 2.08 nM

Question: What about the “HEK-Blue, IL-36α, % inhibition at 100 nM (IgG)” value [13] of the same binder?
Answer: 100%

Question: What about the “HEK-Blue, IL-36α, IC50 (IgG)” value [13] of the same binder?
Answer: 0.622 nM

Question: And the Kd [14]?
Answer: 0.188 nM

Question: And the koff [14]?
Answer: 0.00056 s⁻¹

Question: What about the kon [14] of the same binder?
Answer: 2.98e+06 M⁻¹ s⁻¹

Question: What about the Kd [15] of the same binder?
Answer: 0.164 nM

Question: What about the koff [15] of the same binder?
Answer: 0.000324 s⁻¹

Question: And the kon [15]?
Answer: 1.98e+06 M⁻¹ s⁻¹

Question: And the Kd [16]?
Answer: 0.0185 nM

Question: And the koff [16]?
Answer: 3.51e-05 s⁻¹

Question: What about the kon [16] of the same binder?
Answer: 1.9e+06 M⁻¹ s⁻¹

Question: What about the Kd [17] of the same binder?
Answer: 0.0339 nM

Question: What about the koff [17] of the same binder?
Answer: 6.8e-05 s⁻¹

Question: And the kon [17]?
Answer: 2e+06 M⁻¹ s⁻¹

Question: And the Kd [18]?
Answer: 0.0304 nM

Question: What about the koff [18] of the same binder?
Answer: 6.15e-05 s⁻¹

Question: What about the kon [18] of the same binder?
Answer: 2.03e+06 M⁻¹ s⁻¹

Question: What about the Kd [19] of the same binder?
Answer: 0.0223 nM

Question: And the koff [19]?
Answer: 5.39e-05 s⁻¹

Question: What about the kon [19] of the same binder?
Answer: 2.41e+06 M⁻¹ s⁻¹

Question: And the Kd [20]?
Answer: 558 nM

Question: And the Kd [21]?
Answer: 45.6 nM
